# Test results from IntAct's records for PubMed 12486103.
# B1: Inhibitor of nuclear factor kappa-B kinase subunit alpha (Homo sapiens), O15111 (parent)
# chain: MERPPGLRPGAGGPWEMRERLGTGGFGNVCLYQHRELDLKIAIKSCRLELSTKNRERWCHEIQIMKKLNHANVVKACDVPEELNILIHDVPLLAMEYCSGGDLRKLLNKPENCCGLKESQILSLLSDIGSGIRYLHENKIIHRDLKPENIVLQDVGGKIIHKIIDLGYAKDVDQGSLCTSFVGTLQYLAPELFENKPYTATVDYWSFGTMVFECIAGYRPFLHHLQPFTWHEKIKKKDPKCIFACEEMSGEVRFSSHLPQPNSLCSLVVEPMENWLQLMLNWDPQQRGGPVDLTLKQPRCFVLMDHILNLKIVHILNMTSAKIISFLLPPDESLHSLQSRIERETGINTGSQELLSETGISLDPRKPASQCVLDGVRGCDSYMVYLFDKSKTVYEGPFASRSLSDCVNYIVQDSKIQLPIIQLRKVWAEAVHYVSGLKEDYSRLFQGQRAAMLSLLRYNANLTKMKNTLISASQQLKAKLEFFHKSIQLDLERYSEQMTYGISSEKMLKAWKEMEEKAIHYAEVGVIGYLEDQIMSLHAEIMELQKSPYGRRQGDLMESLEQRAIDLYKQLKHRPSDHSYSDSTEMVKIIVHTVQSQDRVLKELFGHLSKLLGCKQKIIDLLPKVEVALSNIKEADNTVMFMQGKRQKEIWHLLKIACTQSSARSLVGSSLEGAVTPQTSAWLPPTSAEHDHSLSCVVTPQDGETSAQMIEENLNCLGHLSTIIHEANEEQGNSMMNLDWSWLTE
# B2: Inhibitor of nuclear factor kappa-B kinase subunit beta (Homo sapiens), O14920 (parent)
# chain: MSWSPSLTTQTCGAWEMKERLGTGGFGNVIRWHNQETGEQIAIKQCRQELSPRNRERWCLEIQIMRRLTHPNVVAARDVPEGMQNLAPNDLPLLAMEYCQGGDLRKYLNQFENCCGLREGAILTLLSDIASALRYLHENRIIHRDLKPENIVLQQGEQRLIHKIIDLGYAKELDQGSLCTSFVGTLQYLAPELLEQQKYTVTVDYWSFGTLAFECITGFRPFLPNWQPVQWHSKVRQKSEVDIVVSEDLNGTVKFSSSLPYPNNLNSVLAERLEKWLQLMLMWHPRQRGTDPTYGPNGCFKALDDILNLKLVHILNMVTGTIHTYPVTEDESLQSLKARIQQDTGIPEEDQELLQEAGLALIPDKPATQCISDGKLNEGHTLDMDLVFLFDNSKITYETQISPRPQPESVSCILQEPKRNLAFFQLRKVWGQVWHSIQTLKEDCNRLQQGQRAAMMNLLRNNSCLSKMKNSMASMSQQLKAKLDFFKTSIQIDLEKYSEQTEFGITSDKLLLAWREMEQAVELCGRENEVKLLVERMMALQTDIVDLQRSPMGRKQGGTLDDLEEQARELYRRLREKPRDQRTEGDSQEMVRLLLQAIQSFEKKVRVIYTQLSKTVVCKQKALELLPKVEEVVSLMNEDEKTVVRLQEKRQKELWNLLKIACSKVRGPVSGSPDSMNASRLSQPGQLMSQPSTASNSLPEPAKKSEELVAEAHNLCTLLENAIQDTVREQDQSFTALDWSWLQTEEEEHSCLEQAS
# Variants of: B1
# Details: with ikba_human NFKBIA
row,effect of a mutation on the interaction,Variant
1,disrupting interaction,K44M

# Variants of: B2
# Details: with ikba_human NFKBIA
row,effect of a mutation on the interaction,Variant
1,decreasing interaction,K44A
